Experimental data published in patent US20240190962A1 (IMMUNOWAKE, published 2024).

T1: human IL-2 receptor (IL-2Rα, IL-2Rβ, IL-2Rγ) (human, UniProt P01589 22-272; P14784 27-551; P31785 23-369)
T1 sequence (looked up) 1: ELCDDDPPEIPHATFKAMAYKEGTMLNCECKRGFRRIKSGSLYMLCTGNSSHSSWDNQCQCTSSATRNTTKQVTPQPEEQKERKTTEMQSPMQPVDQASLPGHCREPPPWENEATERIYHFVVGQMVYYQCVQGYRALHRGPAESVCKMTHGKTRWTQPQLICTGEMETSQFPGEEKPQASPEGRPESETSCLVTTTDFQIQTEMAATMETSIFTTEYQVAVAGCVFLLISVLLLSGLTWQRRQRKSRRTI
T1 sequence (looked up) 2: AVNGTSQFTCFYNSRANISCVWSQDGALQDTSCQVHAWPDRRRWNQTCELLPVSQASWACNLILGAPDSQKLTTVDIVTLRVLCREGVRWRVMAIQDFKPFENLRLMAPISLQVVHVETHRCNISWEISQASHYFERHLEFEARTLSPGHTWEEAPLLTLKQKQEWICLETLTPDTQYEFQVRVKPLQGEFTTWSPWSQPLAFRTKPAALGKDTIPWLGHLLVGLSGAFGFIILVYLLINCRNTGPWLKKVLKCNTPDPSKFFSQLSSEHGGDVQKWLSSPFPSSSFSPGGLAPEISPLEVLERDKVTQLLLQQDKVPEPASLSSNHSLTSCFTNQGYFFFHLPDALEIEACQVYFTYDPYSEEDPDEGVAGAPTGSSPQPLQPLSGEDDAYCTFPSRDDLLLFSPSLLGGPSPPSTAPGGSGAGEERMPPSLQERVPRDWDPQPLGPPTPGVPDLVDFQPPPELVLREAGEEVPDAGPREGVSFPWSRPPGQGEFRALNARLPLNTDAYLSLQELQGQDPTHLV
T1 sequence (looked up) 3: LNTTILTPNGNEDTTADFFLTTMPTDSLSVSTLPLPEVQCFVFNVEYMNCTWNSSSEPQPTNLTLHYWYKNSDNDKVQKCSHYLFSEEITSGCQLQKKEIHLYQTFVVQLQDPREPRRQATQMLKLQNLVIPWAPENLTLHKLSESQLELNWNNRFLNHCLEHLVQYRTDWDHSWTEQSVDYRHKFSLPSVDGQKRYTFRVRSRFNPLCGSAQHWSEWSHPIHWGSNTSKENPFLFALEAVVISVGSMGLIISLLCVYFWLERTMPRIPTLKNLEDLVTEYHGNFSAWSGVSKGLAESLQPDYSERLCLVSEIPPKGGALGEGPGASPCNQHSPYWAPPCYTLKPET


What was measured:
[1] = molecular target: T1, human IL-2 receptor (IL-2Rα, IL-2Rβ, …); test: cell-based or functional assay
[2] = molecular target: human IL-12 receptor complex (IL-12Rβ1, IL-12Rβ2) (human, UniProt P42701 24-662; Q99665 24-862); test: cell-based or functional assay
human IL-12 receptor complex (IL-12Rβ1, IL-12Rβ2), sequence (Q99665 24-862, chain 2 of 2, other chains not shown): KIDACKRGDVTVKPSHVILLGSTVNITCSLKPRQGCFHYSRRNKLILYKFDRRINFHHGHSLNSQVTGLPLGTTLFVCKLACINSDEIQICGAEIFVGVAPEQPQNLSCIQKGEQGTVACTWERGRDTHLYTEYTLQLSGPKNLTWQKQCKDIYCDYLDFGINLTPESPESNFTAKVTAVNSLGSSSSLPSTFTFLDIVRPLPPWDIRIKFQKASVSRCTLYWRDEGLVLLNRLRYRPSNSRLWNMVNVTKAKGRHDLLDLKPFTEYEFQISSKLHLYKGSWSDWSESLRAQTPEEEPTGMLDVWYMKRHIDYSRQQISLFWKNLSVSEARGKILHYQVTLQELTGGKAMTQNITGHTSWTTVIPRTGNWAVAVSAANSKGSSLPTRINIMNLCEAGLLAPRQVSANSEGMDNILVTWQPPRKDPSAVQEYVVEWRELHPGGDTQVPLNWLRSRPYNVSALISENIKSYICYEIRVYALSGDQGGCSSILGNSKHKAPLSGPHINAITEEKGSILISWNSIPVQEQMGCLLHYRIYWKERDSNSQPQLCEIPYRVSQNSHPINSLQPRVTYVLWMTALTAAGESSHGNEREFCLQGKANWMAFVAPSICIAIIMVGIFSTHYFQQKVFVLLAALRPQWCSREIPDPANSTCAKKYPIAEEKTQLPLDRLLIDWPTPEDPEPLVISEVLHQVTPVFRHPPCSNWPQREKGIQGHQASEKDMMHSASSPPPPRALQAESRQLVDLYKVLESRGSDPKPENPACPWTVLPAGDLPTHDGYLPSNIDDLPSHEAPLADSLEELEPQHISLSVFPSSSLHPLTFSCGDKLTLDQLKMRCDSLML

IL-2 biological activity, HEK-IL-2 [1] [%]	IL-2 biological activity, HEK-IL-2-PD-1 [1] [%]	IL-12 biological activity, HEK-IL-12 [2] [%]	IL-12 biological activity, HEK-IL-12-PD-1 [2] [%]	Binder
< 0.1	< 0.1	1	25	PD-L1(mut2)-Fc/IL-12(E59A/F60A) (Fc fusion) chain 1: FTVTVPKDLYVVEYGSNMTIECKFPVEKQLDLAALQVYWMMEDKNIIQFVHGEEDLKVQHSSYRQRARLLKDQLSLGNAALQITDVKLQDAGVYTCLIAYKGADYKRITVKVNAPYNKINQRILVVDPVTSEHELTCQAEGYPKAEVIWTSSDHQVLSGKTTTTNSKREEKLFNVTSTLRINTTTNEIFYCTFRRLDPEENHTAELVIPELPLAHPPNERGGGGSGGGDKTHTCPPCPAPEDEGGPSVFLFPPKPKDTLMISRTPEVTCVVVDVSHEDPEVKFNWYVDGVEVHNAKTKPREEQYNSTYRVVSVLTVLHQDWLNGKEYKCKVSNKALPAPIEKTISKAKGQPREPQVYVYPPSREEMTKNQVSLTCLVKGFYPSDIAVEWESNGQPENNYKTTPPVLDEDGSFALVSKLTVDKSRWQQGNVFSCSVMHEALHNHYTQKSLSLSPGKGGGGSGGGIWELKKDVYVVELDWYPDAPGEMVVLTCDTPEEDGITWTLDQSSEVLGSGKTLTIQVKAAGDAGQYTCHKGGEVLSHSLLLLHKKEDGIWSTDILKDQKEPKNKTFLRCEAKNYSGRFTCWWLTTISTDLTFSVKSSRGSSDPQGVTCGAATLSAERVRGDNKEYEYSVECQEDSACPAAEESLPIEVMVDAVHKLKYENYTSSFFIRDIIKPDPPKNLQLKPLKNSRQVEVSWEYPDTWSTPHSYFSLTFCVQVQGKSKREKKDRVFTDKTSATVICRKNASISVRAQDRYYSSSWSEWASVPCSGGGGSGGGSGGGGSRNLPVATPDPGMFPCLHHSQNLLRAVSNMLQKARQTLEFYPCTSEEIDHEDITKDKTSTVEACLPLELTKNESCLNSRETSFITNGSCLASRKTSFMMALCLSSIYEDLKMYQVEFKTMNAKLLMDPKRQIFLDQNMLAVIDELMQALNFNSETVPQKSSLEEPDFYKTKIKLCILLHAFRIRAVTIDRVMSYLNAS chain 2: FTVTVPKDLYVVEYGSNMTIECKFPVEKQLDLAALQVYWMMEDKNIIQFVHGEEDLKVQHSSYRQRARLLKDQLSLGNAALQITDVKLQDAGVYTCLIAYKGADYKRITVKVNAPYNKINQRILVVDPVTSEHELTCQAEGYPKAEVIWTSSDHQVLSGKTTTTNSKREEKLFNVTSTLRINTTTNEIFYCTFRRLDPEENHTAELVIPELPLAHPPNERGGGGSGGGDKTHTCPPCPAPEKKGGPSVFLFPPKPKDTLMISRTPEVTCVVVDVSHEDPEVKFNWYVDGVEVHNAKTKPREEQYNSTYRVVSVLTVLHQDWLNGKEYKCKVSNKALPAPIEKTISKAKGQPREPQVYVLPPSREEMTKNQVSLLCLVKGFYPSDIAVEWESNGQPENRYMTWPPVLDSDGSFFLYSKLTVDKSRWQQGNVFSCSVMHEALHNHYTQKSLSLSPGK
3	32	2	27	IL-2(L18R/Q22E/R38D/K43E/E61R)/PD-L1(mut2)-Fc/IL-12(E59A/F60A) (Fc fusion) chain 1: FTVTVPKDLYVVEYGSNMTIECKFPVEKQLDLAALQVYWMMEDKNIIQFVHGEEDLKVQHSSYRQRARLLKDQLSLGNAALQITDVKLQDAGVYTCLIAYKGADYKRITVKVNAPYNKINQRILVVDPVTSEHELTCQAEGYPKAEVIWTSSDHQVLSGKTTTTNSKREEKLFNVTSTLRINTTTNEIFYCTFRRLDPEENHTAELVIPELPLAHPPNERGGGGSGGGDKTHTCPPCPAPEDEGGPSVFLFPPKPKDTLMISRTPEVTCVVVDVSHEDPEVKFNWYVDGVEVHNAKTKPREEQYNSTYRVVSVLTVLHQDWLNGKEYKCKVSNKALPAPIEKTISKAKGQPREPQVYVYPPSREEMTKNQVSLTCLVKGFYPSDIAVEWESNGQPENNYKTTPPVLDEDGSFALVSKLTVDKSRWQQGNVFSCSVMHEALHNHYTQKSLSLSPGKGGGGSGGGIWELKKDVYVVELDWYPDAPGEMVVLTCDTPEEDGITWTLDQSSEVLGSGKTLTIQVKAAGDAGQYTCHKGGEVLSHSLLLLHKKEDGIWSTDILKDQKEPKNKTFLRCEAKNYSGRFTCWWLTTISTDLTFSVKSSRGSSDPQGVTCGAATLSAERVRGDNKEYEYSVECQEDSACPAAEESLPIEVMVDAVHKLKYENYTSSFFIRDIIKPDPPKNLQLKPLKNSRQVEVSWEYPDTWSTPHSYFSLTFCVQVQGKSKREKKDRVFTDKTSATVICRKNASISVRAQDRYYSSSWSEWASVPCSGGGGSGGGSGGGGSRNLPVATPDPGMFPCLHHSQNLLRAVSNMLQKARQTLEFYPCTSEEIDHEDITKDKTSTVEACLPLELTKNESCLNSRETSFITNGSCLASRKTSFMMALCLSSIYEDLKMYQVEFKTMNAKLLMDPKRQIFLDQNMLAVIDELMQALNFNSETVPQKSSLEEPDFYKTKIKLCILLHAFRIRAVTIDRVMSYLNAS chain 2: FTVTVPKDLYVVEYGSNMTIECKFPVEKQLDLAALQVYWMMEDKNIIQFVHGEEDLKVQHSSYRQRARLLKDQLSLGNAALQITDVKLQDAGVYTCLIAYKGADYKRITVKVNAPYNKINQRILVVDPVTSEHELTCQAEGYPKAEVIWTSSDHQVLSGKTTTTNSKREEKLFNVTSTLRINTTTNEIFYCTFRRLDPEENHTAELVIPELPLAHPPNERGGGSGAPTSSSTKKTQLQLEHLRLDLEMILNGINNYKNPKLTDMLTFEFYMPKKATELKHLQCLERELKPLEEVLNLAQSKNFHLRPRDLISNINVIVLELKGSETTFMCEYADETATIVEFLNRWITFCQSIISTLTGGGGSGGGDKTHTCPPCPAPEKKGGPSVFLFPPKPKDTLMISRTPEVTCVVVDVSHEDPEVKFNWYVDGVEVHNAKTKPREEQYNSTYRVVSVLTVLHQDWLNGKEYKCKVSNKALPAPIEKTISKAKGQPREPQVYVLPPSREEMTKNQVSLLCLVKGFYPSDIAVEWESNGQPENRYMTWPPVLDSDGSFFLYSKLTVDKSRWQQGNVFSCSVMHEALHNHYTQKSLSLSPGK
3	31	1	30	IL-2(R38D/K43E/E61R/Q126T)/PD-L1(mut2)-Fc/IL-12(E59A/F60A) (Fc fusion) chain 1: FTVTVPKDLYVVEYGSNMTIECKFPVEKQLDLAALQVYWMMEDKNIIQFVHGEEDLKVQHSSYRQRARLLKDQLSLGNAALQITDVKLQDAGVYTCLIAYKGADYKRITVKVNAPYNKINQRILVVDPVTSEHELTCQAEGYPKAEVIWTSSDHQVLSGKTTTTNSKREEKLFNVTSTLRINTTTNEIFYCTFRRLDPEENHTAELVIPELPLAHPPNERGGGGSGGGDKTHTCPPCPAPEDEGGPSVFLFPPKPKDTLMISRTPEVTCVVVDVSHEDPEVKFNWYVDGVEVHNAKTKPREEQYNSTYRVVSVLTVLHQDWLNGKEYKCKVSNKALPAPIEKTISKAKGQPREPQVYVYPPSREEMTKNQVSLTCLVKGFYPSDIAVEWESNGQPENNYKTTPPVLDEDGSFALVSKLTVDKSRWQQGNVFSCSVMHEALHNHYTQKSLSLSPGKGGGGSGGGIWELKKDVYVVELDWYPDAPGEMVVLTCDTPEEDGITWTLDQSSEVLGSGKTLTIQVKAAGDAGQYTCHKGGEVLSHSLLLLHKKEDGIWSTDILKDQKEPKNKTFLRCEAKNYSGRFTCWWLTTISTDLTFSVKSSRGSSDPQGVTCGAATLSAERVRGDNKEYEYSVECQEDSACPAAEESLPIEVMVDAVHKLKYENYTSSFFIRDIIKPDPPKNLQLKPLKNSRQVEVSWEYPDTWSTPHSYFSLTFCVQVQGKSKREKKDRVFTDKTSATVICRKNASISVRAQDRYYSSSWSEWASVPCSGGGGSGGGSGGGGSRNLPVATPDPGMFPCLHHSQNLLRAVSNMLQKARQTLEFYPCTSEEIDHEDITKDKTSTVEACLPLELTKNESCLNSRETSFITNGSCLASRKTSFMMALCLSSIYEDLKMYQVEFKTMNAKLLMDPKRQIFLDQNMLAVIDELMQALNFNSETVPQKSSLEEPDFYKTKIKLCILLHAFRIRAVTIDRVMSYLNAS chain 2: FTVTVPKDLYVVEYGSNMTIECKFPVEKQLDLAALQVYWMMEDKNIIQFVHGEEDLKVQHSSYRQRARLLKDQLSLGNAALQITDVKLQDAGVYTCLIAYKGADYKRITVKVNAPYNKINQRILVVDPVTSEHELTCQAEGYPKAEVIWTSSDHQVLSGKTTTTNSKREEKLFNVTSTLRINTTTNEIFYCTFRRLDPEENHTAELVIPELPLAHPPNERGGGSGAPTSSSTKKTQLQLEHLLLDLQMILNGINNYKNPKLTDMLTFEFYMPKKATELKHLQCLERELKPLEEVLNLAQSKNFHLRPRDLISNINVIVLELKGSETTFMCEYADETATIVEFLNRWITFCTSIISTLTGGGGSGGGDKTHTCPPCPAPEKKGGPSVFLFPPKPKDTLMISRTPEVTCVVVDVSHEDPEVKFNWYVDGVEVHNAKTKPREEQYNSTYRVVSVLTVLHQDWLNGKEYKCKVSNKALPAPIEKTISKAKGQPREPQVYVLPPSREEMTKNQVSLLCLVKGFYPSDIAVEWESNGQPENRYMTWPPVLDSDGSFFLYSKLTVDKSRWQQGNVFSCSVMHEALHNHYTQKSLSLSPGK
